Tests used:
[1] = system: (4-O)-Ac-(4-trans-L-Hyp)SSChgQ-SL-(dAc)-VIN
[2] = system: 4-O-((2-OH)Ac-Abu-SSChgQ-S-P)-dAc-VIN
[3] = system: 4-O-(Ac-4-trans-L-HypSSChgQ-SS-4-trans-L-Hyp)-dAc-VIN
[4] = system: 4-O-(Ac-4-trans-L-HypSSChgQS-Glycine)-(dAc)-VIN
[5] = system: 4-O-(Ac-4-trans-L-HypSSChgQSL-lactyl)-(dAc)-VIN
[6] = system: 4-O-(Ac-4-trans-L-HypSSChgQSS-Sar)-(dAc)-VIN
[7] = system: 4-O-(Ac-4-trans-L-HypSSChgQSV-glycolyl)-VIN
[8] = system: 4-O-(Ac-Abu-SSChgQ-SP)-dAc-VIN
[9] = system: 4-O-(Ac-SSChgQ-SS-4-trans-L-Hyp)-dAc-VIN
[10] = system: 4-O-(Ac-SSChgQ-SS-P)-dAc-VIN
[11] = system: 4-O-(Ac-SSChgQS-Gly)-(dAc)-VIN
[12] = system: Ac-4-trans-L-HypSSChgQ-SChg-(4-O-lactyl)-dAc-VIN
[13] = system: Ac-4-trans-L-HypSSChgQS-(4-O-Ala)-(dAc)-VIN
[14] = system: Ac-4-trans-L-HypSSChgQSChg-(4-O-glycolyl)-VIN
[15] = system: Ac-4-trans-L-HypSSChgQSS-(4-O-Sar)-(dAc)-VIN
[16] = system: Ac-AbuSSChgQ-S(dS)-(4-O-P)-dAc-VIN
[17] = system: Ac-AbuSSChgQ-SS-(4-O-P)-dAc-VIN
[18] = system: des-Acetylvinblastine-4-O-(N-Acetyl-4-trans-L-Hyp-Ser-Ser-Chg-Gln-Ser-Ser-Pro) ester

free prostate specific antigen (PSA)
Time to 50% Substrate Cleavage by York PSA [1]: 35 min
Time to 50% Substrate Cleavage by York PSA [2]: 110 min
Time to 50% Substrate Cleavage by York PSA [3]: 13 min
Time to 50% Substrate Cleavage by York PSA [4]: 30 min
Time to 50% Substrate Cleavage by York PSA [5]: 10 min
Time to 50% Substrate Cleavage by York PSA [6]: 32 min
Time to 50% Substrate Cleavage by York PSA [7]: 8 min
Time to 50% Substrate Cleavage by York PSA [8]: 80 min
Time to 50% Substrate Cleavage by York PSA [9]: 22 min
Time to 50% Substrate Cleavage by York PSA [10]: 15 min
Time to 50% Substrate Cleavage by York PSA [11]: 55 min
Time to 50% Substrate Cleavage by York PSA [12]: 14 min
Time to 50% Substrate Cleavage by York PSA (Min) [13]: 23 (prod converts to 4-O-A-dAc-VIN)
Time to 50% Substrate Cleavage by York PSA [14]: 12 min
Time to 50% Substrate Cleavage by York PSA [15]: 15 min
Time to 50% Substrate Cleavage by York PSA [16]: 60 min
Time to 50% Substrate Cleavage by York PSA [17]: 7 min
Time to 50% Substrate Cleavage by York PSA [18]: 17 min
